# The RNAGym collection of RNA variant scans (doi:10.1073/pnas.2313332121)
# B1: TPR t1 (parent)
# chain: GACCAAUCUGCCCUCAGAGCUCGAGAACAUCUUCGGAUGCAGAGGAGGCAGGCUUCGGUGGCGCGAUAGCGCCAACGUCCUCAACCUCCAAUGCAUCCCACCACAUGAUGAUGCCUGAAGAGCCUUGGUUUUUUG
# Variants of: B1
# Test: polymerase ribozyme fitness, log enrichment relative to wild type (log ratio); higher = more active; in vitro selection for triplet polymerase activity
# Outline: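 One round of in vitro selection, in triplicate, was applied to PCR-built, transcribed mutant libraries of each subunit of a heterodimeric triplet polymerase ribozyme. The steps were annealing with a biotinylated primer, partner subunit and triplets, incubation frozen at −7 °C, gel excision of extended constructs, streptavidin-bead capture and RT-PCR. Fitness is the logarithm, base 2, of genotype enrichment over wild-type enrichment from inverse-variance-weighted replicate averages of Illumina-sequenced inputs and outputs, keeping genotypes with ≥10 input reads and ≥1 read per output.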
row,Variant,polymerase ribozyme fitness (log ratio)
1,A90G C97U,0.255
2,A91G C94U U109A U112A,-6.42
3,U92C G128C U130A,-3.52
4,A90U A95U G113C G122U,-1.98
5,U92C A121C,1.53
6,U96A G117A G120A U130C,-3.72
7,C94A A100G C114U C124G,-5.66
8,C97A G120U,-4.3
9,C97A G120C,-4.1
10,C97A G120A,-3.9
11,C97U U106G C123U,-2.04
12,U92C G120U G127A,-0.833
13,U92A G113U,-3.75
14,A90G A103U A119G,-3.56
15,U96C A118U U129C,-0.593
16,C94G C115A A121C,0.289
17,U96C A105U,-3.06
18,A95U U116G A118G,-2.78
19,C99A C123U,-6.27
20,U92A U106A C114A C123A,-5.83
21,A91C U96A A103U,-7.59

row,Variant,polymerase ribozyme fitness (log ratio)
1,G93U G117C,-4.08
2,C97U U109A,-2.09
3,A95C U125A U126G,-1.74
4,C98U A108G,-6.36
5,A90G C99U U106C,-2.51
6,A91C G113U,-3.8
7,C98U G110C U131A,-5.64
8,G93A C115U,-1.29
9,G93C C98U A121U,1.01
10,C94G G120A,0.357
11,C98U G120A,-0.67
12,U92A C94U,-3.3
13,C94A A121C G122U U129A,-2.35
14,A95G C124U U130G,0.565
15,C97G U130G,-4.67
16,U92G U106A,-1.97
17,U92A C102G G113C,-6.86
18,C94G C102U,-3.04
19,G93U C114A,-3.05
20,U92C C102U,-4.04
21,C94G U106A G135U,-1.54

row,Variant,polymerase ribozyme fitness (log ratio)
1,A95C C123G U132A,-0.459
2,U92A A121G,-0.696
3,U92A A121U,-0.332
4,G93C G128C,-2.25
5,U96A G117U,-3.63
6,G93A A118G G135U,-1.11
7,C98U U129C,-1.46
8,A91U C115U U130A,-2.33
9,C99U C115U,-4.48
10,C94A A121U,1.37
11,A90G C101G G113A G117C,-5.96
12,U96C G110A,-0.613
13,U96C G110U,-0.753
14,U92G G93C G117C A121U,-5.65
15,A95U U129C,-0.935
16,A91C C104A,-3.58
17,G93A U112C,0.676
18,C97A C123U,-2.71
19,C97G A111C,-4.02
20,C97G G120C,-4.64
21,C98A C101U G110U G120U C123G U130G,-5.9

row,Variant,polymerase ribozyme fitness (log ratio)
1,A90G C97U A105C U130A,-3.67
2,G93U A111G G122A,-1.2
3,U96G U125A,-0.674
4,U92G G110A,-5.46
5,C99U A119U U130A,-3.7
6,A91C C123A,-1.1
7,U96A G113A,-1.86
8,G93C C101U C104A,-1.95
9,U92C G113A,-1.23
10,C94A U132A,-0.269
11,A95G G135U,-0.746
12,A90U,-1.2
13,A90G,0.347
14,C94G U131A,-1.9
15,A91G G120U,0.174
16,A91C A95U C101A,-4.41
17,G93U U109C,-5.62
18,C97U U112G U116A U129C,-4.3
19,C97U C123A,0.00246
20,A95U U106C,-1.56
